± gives the uncertainty stated by the source.

The data set can be described thus: amyloid nucleation score (Sup35N fusion, yeast selection) (log enrichment); library NNK2; higher = more nucleation; inactive = no reads after selection. Put shortly: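 Sup35N was fused to peptides of 20 random codons and expressed in psi-negative yeast, which were induced with 100 μM copper sulfate for 24 hours and then grown on medium lacking adenine and uracil for 7 days at 30°C. Plasmid inserts from input and output were sequenced on Illumina. The nucleation score is the DiMSum log enrichment of output over input reads, centred on the mode score of non-aggregating sequences. Sequences with under 100 input reads were left out, and random libraries had three technical output replicates.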
With MTYCCITSVPRGRIQNDAVR, the amyloid nucleation score entry is “inactive”.

As for MTYCVN, the amyloid nucleation score was 3.87 ± 0.067.

The substance MVAGITFTNASIWTYNK returned an amyloid nucleation score of 3.63 ± 0.075.

As for MVCSRYRRVCSNVNG, the amyloid nucleation score was found to be 0.506 ± 0.48.

Substance MVHPDVNHSYGSVWKPWSDK had an amyloid nucleation score of 0.132 ± 0.44.

In the case of MVLASAAKVMEVLNSKQFT, the amyloid nucleation score came to 1.42 ± 0.13.

The substance MVMGTYVIVRLYKHKNCNAY returned an amyloid nucleation score of -1.36 ± 0.55.

Substance MVMTYLWARGCCMKLGVQFG showed an amyloid nucleation score of 0.396 ± 0.66.

Turning to MVSLLNFRECMHY, the amyloid nucleation score result was “inactive”.

Consider MVVDFVVYITVCSFRFKQTF, for which the amyloid nucleation score was determined as 1.97 ± 0.18.

The substance MVVRDL had an amyloid nucleation score of -0.536 ± 1.

MVVSFGRLGGNLRRNLKVRI had an amyloid nucleation score of 0.214 ± 0.65.

MVYRSDAGCSPVVTKK displayed an amyloid nucleation score of 0.259 ± 0.5.

Take MYDCGVLFIDIRVKVGHVLE: the amyloid nucleation score worked out at 0.167 ± 0.56.

With MYIRYPFATPYWSFLLGKVT, the amyloid nucleation score is -0.117 ± 0.35.

MYPSG showed an amyloid nucleation score of 0.321 ± 0.49.

The substance MYTAMSDSPFNVWRYGMSSY registered an amyloid nucleation score of -0.382 ± 0.29.

MYWFGTVHQFRKFSENHRMF came in with an amyloid nucleation score of 0.721 ± 0.8.

In turn, MYYLNSFGRELLSGLKCYKT displayed an amyloid nucleation score of -0.698 ± 0.5.

Substance NAIRFLVMLVGTWF came in with an amyloid nucleation score of 0.25 ± 0.24.

Substance NALHEIQLDICMRSIEARGY yielded an amyloid nucleation score of -1.19 ± 0.39.

In turn, NARCMCWSGINLVTWYLLKE came in with an amyloid nucleation score of 7.145 ± 0.04.

With NAVYACLVGEVLWSSISTLS, the amyloid nucleation score came out at 0.058 ± 0.54.

In turn, NAYWNDGFVQAFGRGK had an amyloid nucleation score of -0.644 ± 0.63.

Regarding NCDVGYLCLEKFNIPRRSVL, the amyloid nucleation score is -0.805 ± 0.64.

Consider NCIRSNDRMMFPLCVTLSCS, for which the amyloid nucleation score was found to be 0.335 ± 0.39.

Substance NCNRYRMRTKFRRSYMGSVR yielded an amyloid nucleation score of 0.157 ± 0.28.

As to NCPCGHVVRVNNNWRCFSVT, the amyloid nucleation score turned out to be 6.933 ± 0.052.

NCSKENKPGVIETISVGMGP: the amyloid nucleation score is 1.01 ± 0.48.

In turn, NCYFKLSYEDMIRQCKRLNE registered an amyloid nucleation score of 3.44 ± 0.069.

NDAYITSVVGFTRYMYNFMV: the amyloid nucleation score entry is “inactive”.

For the substance NDFWRYV, the amyloid nucleation score is -0.591 ± 0.24.

Take NDKSFSMLATE: the amyloid nucleation score is 0.707 ± 0.46.

Consider NDSVRTVGCIQYMMRIASVF, for which the amyloid nucleation score was 0.783 ± 0.57.

For NELNLDKPSDLPLS, the amyloid nucleation score was 0.844 ± 0.31.

NESSTSQNKGTRTDKGAESL showed an amyloid nucleation score of 0.376 ± 0.33.

Regarding NFDSYVYNVASVFYVVGLGV, the amyloid nucleation score is 5.321 ± 0.048.

The substance NFFNFSDMYRYGNKIWGGAN had an amyloid nucleation score of 0.208 ± 1.1.

Consider NFIVIALRGTDNTYSLSGLS, for which the amyloid nucleation score was determined as 6.407 ± 0.043.

NFKWLILAGGVC yielded an amyloid nucleation score of -0.808 ± 0.41.

Consider NFLWPCRIHVQGCIHISDTD, for which the amyloid nucleation score was found to be 6.171 ± 0.045.

As to NFNHVSEI, the amyloid nucleation score result was “inactive”.

With NFNYFGWISQEIPPLLAGLS, the amyloid nucleation score was -0.509 ± 1.1.

NFQVNMFVMF yielded an amyloid nucleation score of 8.986 ± 0.027.

NFSTGEGMYRNYNWDSQVRV: the amyloid nucleation score result was “inactive”.

NFTSGGRRHNVERVGHLGLV yielded an amyloid nucleation score of -0.168 ± 0.76.

NFTYVSIVMLLSRVWVGFNK: the amyloid nucleation score result is “inactive”.

Turning to NFYAYIIVDCSWMCSTCYSL, the amyloid nucleation score was determined as 5.52 ± 0.044.

Regarding NGGLLYDI, the amyloid nucleation score result was “inactive”.

Substance NGNGCLAFAKTVFCWVDGLP came in with an amyloid nucleation score of 7.215 ± 0.046.

Consider NGRIICNESMSLYKSEV, for which the amyloid nucleation score came out at 0.842 ± 0.8.

For the substance NGSMIKWDRFASCILHAML, the amyloid nucleation score entry was “inactive”.

Substance NGTTWKYYSRMSVTCAGPSI had an amyloid nucleation score of -0.952 ± 0.39.

Substance NGTVDACLSLMPQGWHSGLE displayed an amyloid nucleation score of 3.76 ± 0.12.

For the substance NGVRYYFRVRGSMTRLNEAE, the amyloid nucleation score came to 0.276 ± 1.

In turn, NGWIYAYDLLLERTSQSWKI gave an amyloid nucleation score of -0.472 ± 0.32.

In the case of NGWKYLYIWFPAICSCFMRG, the amyloid nucleation score is -0.213 ± 0.24.

For the substance NHAVVCLDFNGGFPGQA, the amyloid nucleation score is -0.481 ± 0.53.

NHLLMGGGHKDAVGQSVFGI returned an amyloid nucleation score of 0.074 ± 0.74.

Substance NHSMRFVLTMPILWKNQKAG yielded an amyloid nucleation score of 0.228 ± 1.

Substance NIAVPEKAVYTYSPSETQAL had an amyloid nucleation score of -0.583 ± 0.55.

In turn, NIFMLTLGCGCQAFCSVIMT returned an amyloid nucleation score of 1.44 ± 0.17.

NIFRMHLGQASQVIIFLDCR showed an amyloid nucleation score of 4.58 ± 0.12.

NIGKMLRALFDMSNVRT gave an amyloid nucleation score of -1.17 ± 0.39.

NILLIPMRGFSRFRSVMVIP gave an amyloid nucleation score of -0.202 ± 1.1.

As for NINRAQHISDVSCPDENLCI, the amyloid nucleation score is 4.07 ± 0.11.

Substance NIRFTSLFRLCYFSCDSVSN gave an amyloid nucleation score of 5.301 ± 0.035.

Regarding NKRLLLMFNRWDCVVSWDKC, the amyloid nucleation score was -1.31 ± 0.78.

Substance NKRMRVRVEGRLINV returned an amyloid nucleation score of 0.089 ± 0.42.

For the substance NKRPSRTNLWIKALVRP, the amyloid nucleation score result was “inactive”.

NKTPYIDFVLTR had an amyloid nucleation score of 0.236 ± 1.1.

Consider NKVEALLWTKTTLQCSLRSV, for which the amyloid nucleation score was 4.82 ± 0.059.

Turning to NKVVAFNGLV, the amyloid nucleation score result is “inactive”.

NKVVGNTNTFLEND yielded an amyloid nucleation score of 3.91 ± 0.094.

Substance NKWSPEGNSACRDSVCTHIY had an amyloid nucleation score of -0.807 ± 0.76.

As to NLAFSSSIRPLITLEGELLP, the amyloid nucleation score was -0.176 ± 1.1.

In turn, NLDCLYTLAS registered an amyloid nucleation score of 0.339 ± 0.8.

For the substance NLDEQGFAVSWETVLLWSEE, the amyloid nucleation score was -0.005 ± 0.5.

In turn, NLDGIVRMTN came in with an amyloid nucleation score of -0.543 ± 0.56.

The substance NLFLLYEAW had an amyloid nucleation score of -0.155 ± 0.2.

For NLFYLARSMLINLQMYKTER, the amyloid nucleation score was determined as 4.46 ± 0.08.

For the substance NLGCWLVGWLNCGFRWDDDR, the amyloid nucleation score was 5.639 ± 0.038.

With NLGHTCVCFKRIRSYFFSYR, the amyloid nucleation score is -0.94 ± 0.49.

As for NLGTWD, the amyloid nucleation score was -0.156 ± 0.28.

For NLGYYTG, the amyloid nucleation score is -0.868 ± 1.1.

On to NLHLGMEFTCELRCYWIRLP, for which the amyloid nucleation score was determined as 0.279 ± 0.5.

On to NLIKNSAMLSSTRPIYHHSI, for which the amyloid nucleation score is -1.27 ± 0.3.

The substance NLILWKTYCAAFCVGFINCT yielded an amyloid nucleation score of 5.36 ± 0.069.

NLLLVFSILNSGRMTLNDNK returned an amyloid nucleation score of 5.48 ± 0.094.

NLLWLFDV had an amyloid nucleation score of 0.19 ± 1.1.

NLLWYKLNLNTYVACAIKWW registered an amyloid nucleation score of 0.198 ± 0.38.

In turn, NLNFKDGPGDLTCMRDRAFS had an amyloid nucleation score of -0.508 ± 0.63.

The substance NLRLDIAFSPWPRSGYNSGS registered an amyloid nucleation score of 0.292 ± 0.64.

The substance NLTMYILRNYTCIMYYIKVC displayed an amyloid nucleation score of -0.208 ± 1.

The substance NLTVCMLDSPGYQKDCGMRL showed an amyloid nucleation score of 1.54 ± 0.27.

In turn, NLVFSTRIHKFFLNRGEG returned an amyloid nucleation score of 5.15 ± 0.058.

Consider NLYMFIRRAPDIIFCAHVYQ, for which the amyloid nucleation score is 4.35 ± 0.051.

NMGLFGGILVFVMWLIMCSL showed an amyloid nucleation score of 2.31 ± 0.15.

On to NMIYYMFEYAWPCIVER, for which the amyloid nucleation score was 7.37 ± 0.08.

For NMLKGMCWVTLCIWMYMRLC, the amyloid nucleation score stood at 4.09 ± 0.057.

The substance NMMCISSHGSTTSGFLRSSL registered an amyloid nucleation score of 3.52 ± 0.062.

The values above are taken from the supplement of paper PMC12042874.
